The Kd is the constant that tells how readily two partners part at equilibrium. Broadly, the koff is a measure of how fast the partners let go of each other. For orientation: kon means the rate constant with which the complex forms.

4 substances from patent US20180355059A1 can be followed below.

Assay [1] addresses recombinant human PCSK9-His protein (Immunogen A) (human) (UniProt Q8NBP7). Description: SPR, Biacore T200; antibody captured by anti-human Fc. For orientation: Surface plasmon resonance follows binding to a sensor surface in real time, without labels.
Assay [2] concerns the target recombinant cyno monkey PCSK9 protein (cyno monkey). As to the kind of experiment: ELISA, biotin-cyno PCSK9 on streptavidin plate; antibody 0.67 nM.
The target in assay [3] is recombinant human PCSK9 protein, His-tagged (Immunogen A, hPCSK9-His) (human) (UniProt Q8NBP7). Description: ELISA, biotin-hPCSK9-His on streptavidin plate; antibody 0.067 nM. A general note: ELISA stands for enzyme-linked immunosorbent assay.
The target is the same in assay [4]. Description: ELISA, biotin-hPCSK9-His on streptavidin plate; antibody 0 nM (blank).
The target is the same in assay [5]. Description: blocking ELISA, biotin-hPCSK9-His on coated LDLR ECD-His; antibody 40 nM.
The target of assay [6] is recombinant cyno monkey PCSK9 protein (cyno monkey). Description: ELISA, biotin-cyno PCSK9 on streptavidin plate; antibody 0.067 nM.
recombinant cyno monkey PCSK9 protein (cyno monkey), sequence (A8T666 31-692 limits assumed): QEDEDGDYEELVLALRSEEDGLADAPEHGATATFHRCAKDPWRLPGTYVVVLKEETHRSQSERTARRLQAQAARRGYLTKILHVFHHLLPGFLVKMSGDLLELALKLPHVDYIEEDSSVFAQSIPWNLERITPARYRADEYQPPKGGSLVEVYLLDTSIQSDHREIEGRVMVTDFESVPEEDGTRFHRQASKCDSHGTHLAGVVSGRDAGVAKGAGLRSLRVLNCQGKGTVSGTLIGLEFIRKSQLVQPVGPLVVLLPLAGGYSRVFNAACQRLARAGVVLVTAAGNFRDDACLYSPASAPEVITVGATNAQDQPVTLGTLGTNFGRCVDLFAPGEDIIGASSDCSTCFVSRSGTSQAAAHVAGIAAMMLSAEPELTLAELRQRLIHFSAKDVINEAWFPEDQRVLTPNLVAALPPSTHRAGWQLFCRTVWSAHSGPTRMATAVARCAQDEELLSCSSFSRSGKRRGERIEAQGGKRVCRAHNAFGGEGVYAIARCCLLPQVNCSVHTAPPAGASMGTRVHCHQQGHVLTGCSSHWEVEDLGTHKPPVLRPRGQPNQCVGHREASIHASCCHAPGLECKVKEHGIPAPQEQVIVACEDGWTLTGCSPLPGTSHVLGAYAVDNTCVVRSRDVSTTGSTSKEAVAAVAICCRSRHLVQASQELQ
Assay [7] concerns the target recombinant human PCSK9 protein, His-tagged (Immunogen A, hPCSK9-His) (human) (UniProt Q8NBP7). As to the kind of experiment: blocking ELISA, biotin-hPCSK9-His on coated LDLR ECD-His; antibody 1.6 nM.
The target of assay [8] is recombinant cyno monkey PCSK9 protein (cyno monkey). As to the kind of experiment: ELISA, biotin-cyno PCSK9 on streptavidin plate; antibody 6.67 nM.
In assay [9] the target is recombinant human PCSK9 protein, His-tagged (Immunogen A, hPCSK9-His) (human) (UniProt Q8NBP7). As to the kind of experiment: blocking ELISA, biotin-hPCSK9-His on coated LDLR ECD-His; antibody 0.06 nM.
Assay [10] deals with recombinant cyno monkey PCSK9 protein (cyno monkey). Description: ELISA, biotin-cyno PCSK9 on streptavidin plate; antibody 0.000067 nM.
For assay [11] the target is unchanged. Description: ELISA, biotin-cyno PCSK9 on streptavidin plate; antibody 0.0067 nM.
Assay [12] deals with recombinant human PCSK9 protein, His-tagged (Immunogen A, hPCSK9-His) (human) (UniProt Q8NBP7). Description: ELISA, biotin-hPCSK9-His on streptavidin plate; antibody 0.67 nM.
Assay [13] shares this target. Description: blocking ELISA, biotin-hPCSK9-His on coated LDLR ECD-His; antibody 0.01 nM.
Assay [14] has the same target. Description: ELISA, biotin-hPCSK9-His on streptavidin plate; antibody 0.000067 nM.
The target is the same in assay [15]. Description: ELISA, biotin-hPCSK9-His on streptavidin plate; antibody 66.67 nM.
Assay [16] has the same target. As to the kind of experiment: ELISA, biotin-hPCSK9-His on streptavidin plate; antibody 0.0067 nM.
In assay [17] the target is recombinant cyno monkey PCSK9 protein (cyno monkey). As to the kind of experiment: ELISA, biotin-cyno PCSK9 on streptavidin plate; antibody 0.00067 nM.
Assay [18] shares this target. Description: ELISA, biotin-cyno PCSK9 on streptavidin plate; antibody 66.67 nM.
The target of assay [19] is recombinant human PCSK9 protein, His-tagged (Immunogen A, hPCSK9-His) (human) (UniProt Q8NBP7). Description: ELISA, biotin-hPCSK9-His on streptavidin plate; antibody 0.00067 nM.
Assay [20] deals with recombinant cyno monkey PCSK9 protein (cyno monkey). As to the kind of experiment: ELISA, biotin-cyno PCSK9 on streptavidin plate; antibody 0 nM (blank).
Assay [21] has as its target recombinant human PCSK9 protein, His-tagged (Immunogen A, hPCSK9-His) (human) (UniProt Q8NBP7). Description: blocking ELISA, biotin-hPCSK9-His on coated LDLR ECD-His; antibody 0.32 nM.
The target is the same in assay [22]. Description: ELISA, biotin-hPCSK9-His on streptavidin plate; antibody 6.67 nM.
Assay [23] has the same target. As to the kind of experiment: blocking ELISA, biotin-hPCSK9-His on coated LDLR ECD-His; antibody 8 nM.
For assay [24] the target is unchanged. As to the kind of experiment: blocking ELISA, biotin-hPCSK9-His on coated LDLR ECD-His; antibody 200 nM.
For assay [25], the target named is recombinant cyno monkey PCSK9 protein (cyno monkey). As to the kind of experiment: ELISA; antibody 6.67 nM.
Assay [26] concerns the target recombinant human PCSK9-His protein (Immunogen A) (human) (UniProt Q8NBP7). As to the kind of experiment: ELISA of PCSK9 binding to LDLR ECD; antibody 8 nM.
Assay [27] addresses recombinant cyno monkey PCSK9 protein (cyno monkey). As to the kind of experiment: ELISA; antibody 0 nM.
Assay [28] addresses recombinant human PCSK9-His protein (Immunogen A) (human) (UniProt Q8NBP7). As to the kind of experiment: ELISA of PCSK9 binding to LDLR ECD; antibody 0 nM.
The target in assay [29] is recombinant cyno monkey PCSK9 protein (cyno monkey). As to the kind of experiment: ELISA; antibody 0 nM. The source holds these as a separate data set.
Assay [30] addresses recombinant human PCSK9^D374Y protein (human) (UniProt Q8NBP7). Description: ELISA of PCSK9^D374Y binding to LDLR ECD; antibody 0.06 nM.
Assay [31] has as its target recombinant human PCSK9-His protein (Immunogen A) (human) (UniProt Q8NBP7). Description: ELISA of PCSK9 binding to LDLR ECD; antibody 200 nM.
Assay [32] has the same target. As to the kind of experiment: ELISA of PCSK9 binding to LDLR ECD; antibody 40 nM.
For assay [33], the target named is recombinant cyno monkey PCSK9 protein (cyno monkey). Description: ELISA; antibody 0.00067 nM.
Assay [34] has the same target. As to the kind of experiment: ELISA; antibody 0.67 nM.
Assay [35] shares this target. As to the kind of experiment: ELISA; antibody 0.000067 nM.
Assay [36] deals with recombinant human PCSK9-His protein (Immunogen A) (human) (UniProt Q8NBP7). As to the kind of experiment: ELISA; antibody 66.67 nM.
Assay [37] addresses recombinant cyno monkey PCSK9 protein (cyno monkey). As to the kind of experiment: ELISA; antibody 66.67 nM.

Several values for one entry are separate records, joined by “and”; a condition that tells them apart may be missing. Identical values can stand only once.

Regarding Evolocumab, Amgen (antibody), in assay [1], the Kd is < 0.122 nM, the koff was found to be 0.000822 s⁻¹ and the kon was < 100000 M⁻¹ s⁻¹.
The corresponding values for Alirocumab, Regeneron (antibody) are 0.394 nM, 0.000318 s⁻¹ and 806000 M⁻¹ s⁻¹.
Take IgG control (rat IgG) (antibody): the OD450 nm in [2] is 0.12 OD450 nm; in [3] it was 0.12 OD450 nm and 0.09 OD450 nm; in assay [4] it was 0.1 OD450 nm; in [6], 0.12 OD450 nm; in assay [8] it was 0.17 OD450 nm; in assay [10], 0.19 OD450 nm. For the same substance, the OD450 nm in assay [11] is 0.12 OD450 nm; in assay [12] it was 0.09 OD450 nm; in assay [14], 0.11 OD450 nm; in [15], 0.11 OD450 nm; in assay [16], 0.18 OD450 nm and 0.1 OD450 nm; in assay [17] it was 0.16 OD450 nm. The OD450 nm was 0.18 OD450 nm in [18]; 0.18 OD450 nm and 0.09 OD450 nm in assay [19]; 0.15 OD450 nm in assay [20]; 0.1 OD450 nm in [22]. Moreover, the OD450 nm (PCSK9 bound to LDLR) is 1.01 OD450 nm and 1.11 OD450 nm in assay [5]; 1.09 OD450 nm and 1.12 OD450 nm in [7]; 1.26 OD450 nm and 1.2 OD450 nm in assay [9]; 1.22 OD450 nm and 1.18 OD450 nm in assay [13]; 1.2 OD450 nm and 1.13 OD450 nm in assay [21]; 1.02 OD450 nm and 1.07 OD450 nm in assay [23]. For the same substance, the OD450 nm (PCSK9 bound to LDLR) in assay [24] is 1.22 OD450 nm and 1.14 OD450 nm.
IgG control (human IgG) (antibody): the OD450 nm in assay [25] is 0.15 OD450 nm; in assay [26], 1.76 OD450 nm; in assay [27], 0.07 OD450 nm; in [28], 2.4 OD450 nm; in [29], 0.06 OD450 nm; in assay [30], 1.57 OD450 nm. The OD450 nm in assay [31] was 1.41 OD450 nm; in [32], 1.43 OD450 nm; in assay [33] it was 0.07 OD450 nm; in assay [34], 0.08 OD450 nm; in assay [35], 0.07 OD450 nm; in [36], 0.97 OD450 nm. For the same substance, the OD450 nm in assay [37] worked out at 0.81 OD450 nm.
